According to US20130209489A1 (Amgen, published 2013):

Assays:
[1] = molecular target: T1, Peptide B (CNBr peptide, 85-101) (human); test: BIAcore competition: 12A5-5 pre-incubated with the HPLC peptide fraction in solution, then passed over immobilized human myostatin
T1 construct: both are this molecule; also called Peptide D; Reduced CNBr peptide
T1 peptide: LYFNGKEQIIYGKIPAM
Procedure: (§1) The strategy for characterizing the epitopes bound by anti-myostatin neutralizing monoclonal antibodies was to use various CNBr—, LysC— and chymotrypsin-generated human myostatin peptides and determine which peptides could be bound by the antibody. In one aspect, this was tested in a BIAcore® competition binding assay where the binding of 12A5-5 to human myostatin immobilized on a BIAcore® chip was determined in the presence or absence of each of the various isolated HPLC peptide fractions. In the absence of any competing peptides, 12A5-5 was able to bind the human myostatin on the chip and produce an RU (resonance unit) response. […] This general procedure was repeated individually for each peptide. […] These binding patterns, coupled with the known identity of the various myostatin peptides were used to determine which regions of myostatin were important (or necessary) for the binding of antibody 12A5-5.

[2] = molecular target: T2, Peptide H (reduced LysC peptide, 91-97) (human); test: as above
T2 peptide: EQIIYGK
Procedure: as §1

[3] = molecular target: T3, Peptide I (reduced LysC peptide, 55-78) (human); test: as above
T3 construct: From TCEP reduction of peptide G
T3 peptide: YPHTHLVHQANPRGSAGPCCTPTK
Procedure: as §1

[4] = molecular target: T4, Peptide F (LysC peptide, 79-90) (human); test: as above
T4 peptide: MSPINMLYFNGK
Procedure: as §1

[5] = molecular target: T5, Peptide K (reduced LysC peptide, 40-54) (human); test: as above
T5 construct: From TCEP reduction of peptide G
T5 peptide: ANYCSGECEFVFLQK
Procedure: as §1

[6] = molecular target: T6, Peptide J (reduced LysC peptide, 98-109) (human); test: as above
T6 construct: From TCEP reduction of peptide G
T6 peptide: IPAMVVDRCGCS
Procedure: as §1

[7] = molecular target: T7, Peptide N (chymotryptic peptide, Cys knot, dimer) (human); test: as above
T7 chain 1: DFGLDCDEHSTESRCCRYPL
T7 chain 2: KANYCSGECEFVF
T7 chain 3: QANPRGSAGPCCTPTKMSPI
T7 chain 4: GKIPAMVVDRCGCS
Procedure: as §1

[8] = molecular target: T8, Peptide M (reduced LysC peptide, 1-36) (human); test: as above
T8 construct: From TCEP reduction of peptide G
T8 peptide: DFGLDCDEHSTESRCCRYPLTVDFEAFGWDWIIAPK
Procedure: as §1

[9] = molecular target: T9, GDF11 (UniProt O95390 299-407); test: separate experiment, method not named (Biacore section)
T9 construct: also called growth and differentiation factor 11; BMP-11
T9 sequence (O95390 299-407 limits assumed): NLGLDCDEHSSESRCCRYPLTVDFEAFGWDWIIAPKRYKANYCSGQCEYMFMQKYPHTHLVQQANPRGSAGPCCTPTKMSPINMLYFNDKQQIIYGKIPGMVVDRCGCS

[10] = molecular target: T10, Peptide G (LysC peptide, Cys knot, dimer) (human); test: BIAcore competition: 12A5-5 pre-incubated with the HPLC peptide fraction in solution, then passed over immobilized human myostatin; low response means the peptide binds the antibody
T10 construct: Four LysC peptides held together by disulfide bonds (cystine knot), dimeric through Cys73 (19.5 kD)
T10 chain 1: T8 peptide
T10 chain 2: ANYCSGECEFVFLQK
T10 chain 3: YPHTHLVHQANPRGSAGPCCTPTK
T10 chain 4: IPAMVVDRCGCS
Procedure: as §1

[11] = molecular target: T11, Peptide P (chymotryptic peptide, antibody-protected Cys knot, dimer) (human); test: as above
T11 construct: Formed when myostatin pre-incubated with 12A5-5 was digested with chymotrypsin
T11 chain 1: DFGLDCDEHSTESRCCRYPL
T11 chain 2: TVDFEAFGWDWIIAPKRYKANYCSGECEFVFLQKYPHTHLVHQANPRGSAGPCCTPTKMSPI
T11 chain 3: GKIPAMVVDRCGCS
Procedure: as §1

[12] = molecular target: mature human myostatin (human, UniProt O14793 267-375); test: cell-based or functional assay

Kd [9]: ~180 nM | binding result [10]: binds | binding result [11]: binds | Cell Assay (IC50), inhibition of myostatin activity [12]: 1.2 nM
B1: anti-myostatin neutralizing monoclonal antibody 12A5-5 (antibody, V domains shown)
VH: EVQLVESGGGLVQPGGSLRLSCAASGFTFSRYWMNWVRQAPGKGLEWVAQIRLKSDNYATHYAESVKGRFTISRDNAKNSLYLQMNSLRAEDTAVYYCTEGLDYWGQGTTVTVSS
VL: DIQMTQSPSSLSASVGDRVTITCKASQDINKYVAWYQQKPGKAPKLLIYYTSWLQPGVPSRFSGSGSGTDFTFTISSLQPEDIATYYCLQYDNLLYTFGQGTKLEIK
notes: in the KinExA assay it was detected with a goat anti-human-Fc antibody, so it carries a human Fc; also called Mab 12A5-5; MAb 12A5-5
binding result [1]: no binding (tested: peptide concentration not printed) | binding result [2]: no binding (tested: peptide concentration not printed) | binding result [3]: no binding (tested: peptide concentration not printed) | binding result [4]: no binding (tested: peptide concentration not printed) | binding result [5]: no binding (tested: peptide concentration not printed) | binding result [6]: no binding (tested: peptide concentration not printed) | binding result [7]: no binding (tested: peptide concentration not printed) | binding result [8]: no binding (tested: peptide concentration not printed)
